± gives the half width of the 95% confidence interval.
Key:
[1] = folding stability dG unfold from chymotrypsin proteolysis; higher = more stable
How it was run: (§1)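 Unfolding free energy was derived, per protease or combined, by relating Bayesian-fitted K50 values from sequencing counts to a sequence-predicted unfolded-state K50 and a shared folded-state K50. The underlying digests exposed cysteine-free mini-proteins under 80 residues, in a PA-tagged cDNA display construct, to trypsin and chymotrypsin at 11 threefold-diluted concentrations and to a no-protease condition. A filter kept only designs with AlphaFold2 dimer inter-PAE above 15.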

[2] = folding stability dG unfold (combined trypsin and chymotrypsin); higher = more stable
How it was run: as §1

[3] = folding stability dG unfold from trypsin proteolysis; higher = more stable
How it was run: as §1

## SAGGSAGGSAFIRAEYKLPENKVLEIEIPVPESVLKKMSIEEVKELFKKLGLPDDVKIEFYDESAGGSAGGS [r12_742_TrMRF]
[1]
  folding stability dG unfold: 1.78 ± 0.15 kcal/mol
[2]
  folding stability dG unfold: 1.66 ± 0.098 kcal/mol
[3]
  folding stability dG unfold: 1.43 ± 0.041 kcal/mol

## SAGGSAGGSAGAANDPKKIPIHIFPPDGKPIFKVKIEVYDNGIKIKIEWHPSPDGLYPMISAGGSAGGSAGG [r11_874_TrROS]
[1]
  folding stability dG unfold: 1.98 ± 0.082 kcal/mol
[2]
  folding stability dG unfold: 1.99 ± 0.14 kcal/mol
[3]
  folding stability dG unfold: 1.9 ± 0.089 kcal/mol

## SAGGSAGGSAGAAPDGETVRITAVFVNPETQEVFVVEATINPDGELTMEVKEVFKLPEGLSAGGSAGGSAGG [r11_226_TrROS_Hall]
[1]
  folding stability dG unfold: 2.782 ± 0.017 kcal/mol
[2]
  folding stability dG unfold: 2.36 ± 0.068 kcal/mol
[3]
  folding stability dG unfold: 1.42 ± 0.033 kcal/mol

## SAGGSAGGSAGAAVSPEELKEKAKKEGYDGEVVVTRLPDGTLRVTVKDKGKKSEITVPLESAGGSAGGSAGG [r11_410_JUSTAS]
[1]
  folding stability dG unfold: 0.942 ± 0.041 kcal/mol
[2]
  folding stability dG unfold: 0.672 ± 0.11 kcal/mol
[3]
  folding stability dG unfold: 0.263 ± 0.064 kcal/mol

## SAGGSAGGSAGAEELAKKLKELGFEVKVEKNEDGSLTLTVKFKPKPKPKKVVTKDGKEVKSAGGSAGGSAGG [r17_503_TrROS_Hall]
[1]
  folding stability dG unfold: 1.9 ± 0.11 kcal/mol
[2]
  folding stability dG unfold: 1.61 ± 0.26 kcal/mol
[3]
  folding stability dG unfold: 0.579 ± 0.076 kcal/mol

## SAGGSAGGSAGAFVGYRDEGGRYWLRTPEGELELDSEEDALEWADFLRANGIPLLSEPRPSAGGSAGGSAGG [r17_35_TrMRF]
[1]
  folding stability dG unfold: 1.59 ± 0.11 kcal/mol
[2]
  folding stability dG unfold: 1.43 ± 0.073 kcal/mol
[3]
  folding stability dG unfold: 1.08 ± 0.032 kcal/mol

## SAGGSAGGSAGAGKVVFEVDIKTFLGKRKDGSDAPKTIIEIKVFDIAPLDPNDPVLKALISAGGSAGGSAGG [r11_236_TrMRF]
[1]
  folding stability dG unfold: 3.54 ± 0.15 kcal/mol
[2]
  folding stability dG unfold: 3.26 ± 0.22 kcal/mol
[3]
  folding stability dG unfold: 2.28 ± 0.11 kcal/mol

## SAGGSAGGSAGALPFKVKVVEVEVDGDEVTVKVVAELPTGTATVELKLGGKLETLTISPVSAGGSAGGSAGG [r17_45_TrMRF]
[1]
  folding stability dG unfold: 2.47 ± 0.13 kcal/mol
[2]
  folding stability dG unfold: 2.16 ± 0.24 kcal/mol
[3]
  folding stability dG unfold: 1.49 ± 0.19 kcal/mol

## SAGGSAGGSAGAPNIVVVTLTRDALFYNPVEGKWEVKPVTLTRAFTSKEEADKWLEEIGLSAGGSAGGSAGG [r11_984_TrMRF]
[1]
  folding stability dG unfold: 3.84 ± 0.042 kcal/mol
[2]
  folding stability dG unfold: 3.5 ± 0.095 kcal/mol
[3]
  folding stability dG unfold: 2.95 ± 0.091 kcal/mol

## SAGGSAGGSAGAPPEGAKPVEEETVPIEIQMRNDDDGKPIMPIKFEVRVYKFPDGIFISISAGGSAGGSAGG [r11_415_TrROS]
[1]
  folding stability dG unfold: 2.91 ± 0.042 kcal/mol
[2]
  folding stability dG unfold: 2.45 ± 0.21 kcal/mol
[3]
  folding stability dG unfold: 1.34 ± 0.13 kcal/mol

## SAGGSAGGSAGAYRVEVNVELTPEAREAFLKNPELPADAEIPVVVSGRVEPVPLGPEGVLSAGGSAGGSAGG [r17_194_TrMRF]
[1]
  folding stability dG unfold: 0.0793 ± 0.14 kcal/mol
[2]
  folding stability dG unfold: -0.143 ± 0.12 kcal/mol
[3]
  folding stability dG unfold: -0.58 ± 0.2 kcal/mol

## SAGGSAGGSAGDDNDGKKKFPMTIKIPPIPIEIPPGMKITSWIPIRIPGGLEFPIIYITPSAGGSAGGSAGG [r11_388_TrROS]
[1]
  folding stability dG unfold: 1.1 ± 0.12 kcal/mol
[2]
  folding stability dG unfold: 1.03 ± 0.098 kcal/mol
[3]
  folding stability dG unfold: 0.923 ± 0.045 kcal/mol

## SAGGSAGGSAGDIDPEDDIFYLTVRLKDGVPFVLPVRYDDIPFIPPEFVEEATFHKPKDISAGGSAGGSAGG [r11_779_TrMRF]
[1]
  folding stability dG unfold: 0.0924 ± 0.18 kcal/mol
[2]
  folding stability dG unfold: 0.246 ± 0.083 kcal/mol
[3]
  folding stability dG unfold: 0.365 ± 0.096 kcal/mol

## SAGGSAGGSAGDKPITIFIPGTPDDIKDYIEDEGFKIKDIEIQYHKNKDGKYWVMVTIRVSAGGSAGGSAGG [r11_632_TrROS]
[1]
  folding stability dG unfold: 3.33 ± 0.13 kcal/mol
[2]
  folding stability dG unfold: 3.19 ± 0.25 kcal/mol
[3]
  folding stability dG unfold: 2.87 ± 0.18 kcal/mol

## SAGGSAGGSAGDNIYVFEIDIKIKPRKDPDGKWQPEIEINIKIKDIKPIPPNDPELKDLLSAGGSAGGSAGG [r11_236_TrROS]
[1]
  folding stability dG unfold: 1.99 ± 0.036 kcal/mol
[2]
  folding stability dG unfold: 1.94 ± 0.07 kcal/mol
[3]
  folding stability dG unfold: 2 ± 0.05 kcal/mol

## SAGGSAGGSAGDVEVRFEVKFTPDGTLIIKAEIRLPDIPDVTIRVEAVILPNGEILVKVSSAGGSAGGSAGG [r11_483_TrMRF]
[1]
  folding stability dG unfold: 3.06 ± 0.15 kcal/mol
[2]
  folding stability dG unfold: 3.68 ± 0.16 kcal/mol
[3]
  folding stability dG unfold: 3.68 ± 0.11 kcal/mol

## SAGGSAGGSAGDWIMFNFTYKDPGDPGKERTITILIPIPPPPPPEPKPVKDPNGNEGPVYSAGGSAGGSAGG [r11_419_TrROS]
[1]
  folding stability dG unfold: 1.86 ± 0.08 kcal/mol
[2]
  folding stability dG unfold: 1.99 ± 0.18 kcal/mol
[3]
  folding stability dG unfold: 1.69 ± 0.1 kcal/mol

## SAGGSAGGSAGEEVLTLTFPVPPDAPPPGLEAIRESLPGLEDVELDAEELPDGTVRVVLSSAGGSAGGSAGG [r17_205_TrMRF]
[1]
  folding stability dG unfold: -0.172 ± 0.4 kcal/mol
[2]
  folding stability dG unfold: -0.452 ± 0.68 kcal/mol
[3]
  folding stability dG unfold: -0.558 ± 0.19 kcal/mol

## SAGGSAGGSAGEGLKVTVTVSGELDPEKGGLSLRVEIRVEPVLIPPPVLPPAADNLSNLLSAGGSAGGSAGG [r17_454_TrMRF]
[1]
  folding stability dG unfold: 0.912 ± 0.079 kcal/mol
[2]
  folding stability dG unfold: 1.55 ± 0.09 kcal/mol
[3]
  folding stability dG unfold: 1.94 ± 0.072 kcal/mol

## SAGGSAGGSAGEKTLKIVADSEEEAEALAKELAEKYNLEVTIERNPEEEGKYVITIKIKPSAGGSAGGSAGG [r11_797_TrROS_Hall]
[1]
  folding stability dG unfold: 3.5 ± 0.045 kcal/mol
[2]
  folding stability dG unfold: 3.17 ± 0.17 kcal/mol
[3]
  folding stability dG unfold: 2.46 ± 0.14 kcal/mol

## SAGGSAGGSAGEMYKIKIFNKETGKELTLVFESEEEAKEALKKKFPNAKIEIEKISKEELSAGGSAGGSAGG [r11_978_TrROS_Hall]
[1]
  folding stability dG unfold: 3.1 ± 0.13 kcal/mol
[2]
  folding stability dG unfold: 2.8 ± 0.23 kcal/mol
[3]
  folding stability dG unfold: 2.38 ± 0.13 kcal/mol

## SAGGSAGGSAGEVVRVYPTPDGTTVTITPHPTTYTVTTTSPDGVPTTTPVSPAEVAALGLSAGGSAGGSAGG [r17_127_JUSTAS]
[1]
  folding stability dG unfold: -0.25 ± 0.3 kcal/mol
[2]
  folding stability dG unfold: -0.0994 ± 0.2 kcal/mol
[3]
  folding stability dG unfold: -0.0385 ± 0.09 kcal/mol

## SAGGSAGGSAGEWVTIPIKNPEKLKDLPGLPIKDVEPNGGKPTITFNGDDPERIKEALNDSAGGSAGGSAGG [r11_65_TrROS]
[1]
  folding stability dG unfold: 0.498 ± 0.063 kcal/mol
[2]
  folding stability dG unfold: 0.682 ± 0.3 kcal/mol
[3]
  folding stability dG unfold: 0.804 ± 0.057 kcal/mol

## SAGGSAGGSAGFKSVTIGSGTGGLTLTITDVTTGKNTVVNATSLEEAEKIGKEKGWKIILSSAGGSAGGSAG [r3_67_JUSTAS]
[1]
  folding stability dG unfold: -0.281 ± 0.4 kcal/mol
[2]
  folding stability dG unfold: 0.305 ± 0.15 kcal/mol
[3]
  folding stability dG unfold: 0.604 ± 0.07 kcal/mol

## SAGGSAGGSAGGAAPDDVKIEIEWDVGVMTMEMMNPGGQPHKMYMIMVSLKIEIEPNADSAGGSAGGSAGGS [r10_1212_TrROS]
[1]
  folding stability dG unfold: 5.09 ± 0.18 kcal/mol
[2]
  folding stability dG unfold: 4.95 ± 0.18 kcal/mol
[3]
  folding stability dG unfold: 3.74 ± 0.25 kcal/mol

## SAGGSAGGSAGGAMAPDEPVERVEVTYKTGRLTFPGKPVLKKEKVVLKFTLTVTDPALLSAGGSAGGSAGGS [r10_745_JUSTAS]
[1]
  folding stability dG unfold: -0.0228 ± 0.28 kcal/mol
[2]
  folding stability dG unfold: 0.0101 ± 0.15 kcal/mol
[3]
  folding stability dG unfold: -0.234 ± 0.33 kcal/mol

## SAGGSAGGSAGGAMTVETVELPSGEVVTLEYDPASGRVLTTVETPDSVERTEDPLEPPAASAGGSAGGSAGG [r7_63_JUSTAS]
[1]
  folding stability dG unfold: -0.403 ± 0.11 kcal/mol
[2]
  folding stability dG unfold: -0.0846 ± 0.19 kcal/mol
[3]
  folding stability dG unfold: 0.302 ± 0.015 kcal/mol

## SAGGSAGGSAGGAPDLSLPDVRPRVLVRNPATGKWYEFTSLEELEREIKSGRAEVLEISSAGGSAGGSAGGS [r10_520_TrMRF]
[1]
  folding stability dG unfold: 0.704 ± 0.11 kcal/mol
[2]
  folding stability dG unfold: 0.573 ± 0.16 kcal/mol
[3]
  folding stability dG unfold: 0.327 ± 0.088 kcal/mol

## SAGGSAGGSAGGAPLVEVEEVETRRVKDPATKRWYRRTRVRVRNKETGEWYELEFVEPLSAGGSAGGSAGGS [r10_535_TrROS_Hall]
[1]
  folding stability dG unfold: 2.599 ± 0.02 kcal/mol
[2]
  folding stability dG unfold: 2.54 ± 0.048 kcal/mol
[3]
  folding stability dG unfold: 2.49 ± 0.025 kcal/mol

## SAGGSAGGSAGGDAPNTTVTVTLKAEVYYDPSTGALVVKVTAYFPATNTTVTLEFTFPLSAGGSAGGSAGGS [r10_187_TrMRF]
[1]
  folding stability dG unfold: 4.66 ± 0.25 kcal/mol
[2]
  folding stability dG unfold: 4.76 ± 0.72 kcal/mol
[3]
  folding stability dG unfold: 3.66 ± 0.24 kcal/mol

## SAGGSAGGSAGGDDDWRIMINIEIWPYPNYVRIRFPIMIIPPDGKLIGSVEVTFWIPANDSAGGSAGGSAGG [r7_812_TrROS]
[1]
  folding stability dG unfold: 3.84 ± 0.37 kcal/mol
[2]
  folding stability dG unfold: 3.7 ± 0.38 kcal/mol
[3]
  folding stability dG unfold: 3.2 ± 0.18 kcal/mol

## SAGGSAGGSAGGDDNDKEPIGEVTVEVIIPPQIPIRIRWDIYKDPPNGNAMMNMDIDIHSAGGSAGGSAGGS [r10_6_TrROS]
[1]
  folding stability dG unfold: 0.968 ± 0.12 kcal/mol
[2]
  folding stability dG unfold: 0.719 ± 0.22 kcal/mol
[3]
  folding stability dG unfold: 0.638 ± 0.12 kcal/mol

## SAGGSAGGSAGGDKNGKKELRPEVKIKVKIEAEIEPFRYPNNGMPMWILKISIEITSIDSAGGSAGGSAGGS [r10_877_TrROS]
[1]
  folding stability dG unfold: 4.75 ± 0.18 kcal/mol
[2]
  folding stability dG unfold: 4.5 ± 0.19 kcal/mol
[3]
  folding stability dG unfold: 2.96 ± 0.18 kcal/mol

## SAGGSAGGSAGGDLNDAEIIDIYRDPDSDYYYAVFRGPDGGTYLVRFDPNSDRVEVIPLSAGGSAGGSAGGS [r10_674_TrMRF]
[1]
  folding stability dG unfold: 3.387 ± 0.024 kcal/mol
[2]
  folding stability dG unfold: 3.05 ± 0.059 kcal/mol
[3]
  folding stability dG unfold: 2.27 ± 0.1 kcal/mol

## SAGGSAGGSAGGDNTKTLVLVIKVDENVTPEEIKKKLKDLGFKNVKIEKVGNYAVVTVSSAGGSAGGSAGGS [r10_868_TrMRF]
[1]
  folding stability dG unfold: 3.149 ± 0.03 kcal/mol
[2]
  folding stability dG unfold: 2.92 ± 0.052 kcal/mol
[3]
  folding stability dG unfold: 2.58 ± 0.074 kcal/mol

## SAGGSAGGSAGGDWKMIEFYIPIEPDEPITIEIPDGVRIQIWRVDGYYKVTIMIPLEDISAGGSAGGSAGGS [r10_355_TrROS]
[1]
  folding stability dG unfold: 3.71 ± 0.083 kcal/mol
[2]
  folding stability dG unfold: 3.17 ± 0.18 kcal/mol
[3]
  folding stability dG unfold: 2.42 ± 0.14 kcal/mol

— the supplement of paper PMC12764529
